From the supplement of paper PMC12783771
± gives the standard deviation of the averaged measurements.

B1: library; numbered along this chain (parent)
chain: MNIQIGELAKRTACPVVTIRFYEQEGLLPPPGRSRGNFRLYGEEHVERLQFIRHCRSLDMPLSDVRTLLSYRKRPDQDCGEVNMLLDEHIRQVESRIGALLELKHHLVELREACSGARPAQSCGILQGLSDCVCDTRGTTAHPSD

Tests used:
[1] = variants of: B1; assay: sfGFP reporter fluorescence (15 h) (µM FITC); higher = higher leak; settings: library round: Round 1; ligand: none
Method: (§1)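 Cell-free biosensing: 1 µL Echo-assembled CFE reactions with linear PbrR variant templates (5 nM) and pPbrR-sfGFP reporter, with 1 µM Pb, 30 µM Zn or no ligand; endpoint sfGFP fluorescence after 15 h at 30 °C calibrated as µM FITC. Round 1 ML-predicted PbrR mutants; 3 biological replicates.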

[2] = variants of: B1; assay: sfGFP reporter fluorescence (15 h) (µM FITC); higher = stronger transcriptional activation; settings: library round: Round 1
Method: as §1

D64T N83T R111I
sfGFP reporter fluorescence [1]: 0.0783 ± 0.0017 | sfGFP reporter fluorescence ([2]; ligand: 1 µM Pb): 0.156 ± 0.014 | sfGFP reporter fluorescence ([2]; ligand: 30 µM Zn): 1.12 ± 0.13

V108R P143M
sfGFP reporter fluorescence [1]: 0.0636 ± 0.002 | sfGFP reporter fluorescence ([2]; ligand: 1 µM Pb): 0.0724 ± 0.0057 | sfGFP reporter fluorescence ([2]; ligand: 30 µM Zn): 0.376 ± 0.019

N83Y R111L
sfGFP reporter fluorescence [1]: 0.06133 ± 0.00056 | sfGFP reporter fluorescence ([2]; ligand: 1 µM Pb): 0.0694 ± 0.0053 | sfGFP reporter fluorescence ([2]; ligand: 30 µM Zn): 0.0698 ± 0.0019

R96A K104V
sfGFP reporter fluorescence [1]: 0.068 ± 0.0015 | sfGFP reporter fluorescence ([2]; ligand: 1 µM Pb): 0.0754 ± 0.0017 | sfGFP reporter fluorescence ([2]; ligand: 30 µM Zn): 0.118 ± 0.0059

D131A D135P P143W
sfGFP reporter fluorescence [1]: 0.0718 ± 0.0029 | sfGFP reporter fluorescence ([2]; ligand: 1 µM Pb): 0.122 ± 0.0042 | sfGFP reporter fluorescence ([2]; ligand: 30 µM Zn): 0.497 ± 0.081

L107C G124A G128M
sfGFP reporter fluorescence [1]: 0.371 ± 0.0094 | sfGFP reporter fluorescence ([2]; ligand: 1 µM Pb): 1.13 ± 0.051 | sfGFP reporter fluorescence ([2]; ligand: 30 µM Zn): 2.08 ± 0.19

N83T K104V L107I
sfGFP reporter fluorescence [1]: 0.0623 ± 0.0016 | sfGFP reporter fluorescence ([2]; ligand: 1 µM Pb): 0.0753 ± 0.0068 | sfGFP reporter fluorescence ([2]; ligand: 30 µM Zn): 0.112 ± 0.0052

N83T I97H
sfGFP reporter fluorescence [1]: 0.0607 ± 0.0023 | sfGFP reporter fluorescence ([2]; ligand: 1 µM Pb): 0.0635 ± 0.00085 | sfGFP reporter fluorescence ([2]; ligand: 30 µM Zn): 0.0778 ± 0.0044

R111A D131N
sfGFP reporter fluorescence [1]: 0.066 ± 0.0013 | sfGFP reporter fluorescence ([2]; ligand: 1 µM Pb): 0.117 ± 0.018 | sfGFP reporter fluorescence ([2]; ligand: 30 µM Zn): 0.829 ± 0.15

D135A P143Y
sfGFP reporter fluorescence [1]: 0.0639 ± 0.0033 | sfGFP reporter fluorescence ([2]; ligand: 1 µM Pb): 0.0797 ± 0.0033 | sfGFP reporter fluorescence ([2]; ligand: 30 µM Zn): 0.361 ± 0.028

R111L G128P
sfGFP reporter fluorescence [1]: 0.0584 ± 0.0015 | sfGFP reporter fluorescence ([2]; ligand: 1 µM Pb): 0.0568 ± 0.0028 | sfGFP reporter fluorescence ([2]; ligand: 30 µM Zn): 0.0542 ± 0.0045

N83T I97S K104G
sfGFP reporter fluorescence [1]: 0.0612 ± 0.0026 | sfGFP reporter fluorescence ([2]; ligand: 1 µM Pb): 0.076 ± 0.0097 | sfGFP reporter fluorescence ([2]; ligand: 30 µM Zn): 0.102 ± 0.0094

L107C R111L G128M
sfGFP reporter fluorescence [1]: 0.333 ± 0.022 | sfGFP reporter fluorescence ([2]; ligand: 1 µM Pb): 1.15 ± 0.33 | sfGFP reporter fluorescence ([2]; ligand: 30 µM Zn): 2.19 ± 0.32

P61N E94V
sfGFP reporter fluorescence [1]: 0.07452 ± 0.00056 | sfGFP reporter fluorescence ([2]; ligand: 1 µM Pb): 0.145 ± 0.009 | sfGFP reporter fluorescence ([2]; ligand: 30 µM Zn): 0.747 ± 0.049

P61N E94C
sfGFP reporter fluorescence [1]: 0.0858 ± 0.0022 | sfGFP reporter fluorescence ([2]; ligand: 1 µM Pb): 0.186 ± 0.015 | sfGFP reporter fluorescence ([2]; ligand: 30 µM Zn): 0.781 ± 0.13

E109L G128H P143L
sfGFP reporter fluorescence [1]: 0.0639 ± 0.00092 | sfGFP reporter fluorescence ([2]; ligand: 1 µM Pb): 0.0852 ± 0.0089 | sfGFP reporter fluorescence ([2]; ligand: 30 µM Zn): 0.204 ± 0.018

N83T K104R D135K
sfGFP reporter fluorescence [1]: 0.0682 ± 0.00097 | sfGFP reporter fluorescence ([2]; ligand: 1 µM Pb): 0.0845 ± 0.0083 | sfGFP reporter fluorescence ([2]; ligand: 30 µM Zn): 0.149 ± 0.0056

D131C P143A
sfGFP reporter fluorescence [1]: 0.0583 ± 0.0013 | sfGFP reporter fluorescence ([2]; ligand: 1 µM Pb): 0.0696 ± 0.0017 | sfGFP reporter fluorescence ([2]; ligand: 30 µM Zn): 0.141 ± 0.011

D64A E94R
sfGFP reporter fluorescence [1]: 0.0816 ± 0.0051 | sfGFP reporter fluorescence ([2]; ligand: 1 µM Pb): 0.179 ± 0.013 | sfGFP reporter fluorescence ([2]; ligand: 30 µM Zn): 1.44 ± 0.18

L58F M60L P61N
sfGFP reporter fluorescence [1]: 0.091 ± 0.002 | sfGFP reporter fluorescence ([2]; ligand: 1 µM Pb): 0.191 ± 0.051 | sfGFP reporter fluorescence ([2]; ligand: 30 µM Zn): 0.61 ± 0.095

P61D D64K E112H
sfGFP reporter fluorescence [1]: 0.156 ± 0.0048 | sfGFP reporter fluorescence ([2]; ligand: 1 µM Pb): 0.345 ± 0.087 | sfGFP reporter fluorescence ([2]; ligand: 30 µM Zn): 1.36 ± 0.14

N83T D131S
sfGFP reporter fluorescence [1]: 0.0602 ± 0.0017 | sfGFP reporter fluorescence ([2]; ligand: 1 µM Pb): 0.0836 ± 0.0031 | sfGFP reporter fluorescence ([2]; ligand: 30 µM Zn): 0.146 ± 0.016

N83T L107Y
sfGFP reporter fluorescence [1]: 0.0672 ± 0.0015 | sfGFP reporter fluorescence ([2]; ligand: 1 µM Pb): 0.0739 ± 0.0066 | sfGFP reporter fluorescence ([2]; ligand: 30 µM Zn): 0.0947 ± 0.0046

E109H D135A
sfGFP reporter fluorescence [1]: 0.0629 ± 0.00092 | sfGFP reporter fluorescence ([2]; ligand: 1 µM Pb): 0.0832 ± 0.011 | sfGFP reporter fluorescence ([2]; ligand: 30 µM Zn): 0.254 ± 0.02

N83T D135V
sfGFP reporter fluorescence [1]: 0.0628 ± 0.0024 | sfGFP reporter fluorescence ([2]; ligand: 1 µM Pb): 0.0727 ± 0.0031 | sfGFP reporter fluorescence ([2]; ligand: 30 µM Zn): 0.184 ± 0.011

G32A D131C
sfGFP reporter fluorescence [1]: 0.0613 ± 0.0022 | sfGFP reporter fluorescence ([2]; ligand: 1 µM Pb): 0.0707 ± 0.0055 | sfGFP reporter fluorescence ([2]; ligand: 30 µM Zn): 0.147 ± 0.0097

P61N D64T E112I
sfGFP reporter fluorescence [1]: 0.0771 ± 0.0039 | sfGFP reporter fluorescence ([2]; ligand: 1 µM Pb): 0.153 ± 0.018 | sfGFP reporter fluorescence ([2]; ligand: 30 µM Zn): 0.942 ± 0.03

K104A G128M
sfGFP reporter fluorescence [1]: 0.0657 ± 0.0021 | sfGFP reporter fluorescence ([2]; ligand: 1 µM Pb): 0.109 ± 0.01 | sfGFP reporter fluorescence ([2]; ligand: 30 µM Zn): 0.897 ± 0.013

L107C G128H
sfGFP reporter fluorescence [1]: 0.132 ± 0.0069 | sfGFP reporter fluorescence ([2]; ligand: 1 µM Pb): 0.409 ± 0.075 | sfGFP reporter fluorescence ([2]; ligand: 30 µM Zn): 1.66 ± 0.14

V16C V46Y
sfGFP reporter fluorescence [1]: 0.0651 ± 0.0018 | sfGFP reporter fluorescence ([2]; ligand: 1 µM Pb): 0.07452 ± 0.00021 | sfGFP reporter fluorescence ([2]; ligand: 30 µM Zn): 0.0793 ± 0.0053

V16C V46C
sfGFP reporter fluorescence [1]: 0.0646 ± 0.0017 | sfGFP reporter fluorescence ([2]; ligand: 1 µM Pb): 0.066 ± 0.0025 | sfGFP reporter fluorescence ([2]; ligand: 30 µM Zn): 0.0632 ± 0.0019

G128I C134E
sfGFP reporter fluorescence [1]: 0.0745 ± 0.0014 | sfGFP reporter fluorescence ([2]; ligand: 1 µM Pb): 0.139 ± 0.0047 | sfGFP reporter fluorescence ([2]; ligand: 30 µM Zn): 1.38 ± 0.067

N83T C134V
sfGFP reporter fluorescence [1]: 0.0588 ± 0.0022 | sfGFP reporter fluorescence ([2]; ligand: 1 µM Pb): 0.0731 ± 0.0054 | sfGFP reporter fluorescence ([2]; ligand: 30 µM Zn): 0.168 ± 0.016

N83T C134M
sfGFP reporter fluorescence [1]: 0.05754 ± 0.00037 | sfGFP reporter fluorescence ([2]; ligand: 1 µM Pb): 0.0707 ± 0.0046 | sfGFP reporter fluorescence ([2]; ligand: 30 µM Zn): 0.19 ± 0.022

P61N D64K K104V L107C G128I
sfGFP reporter fluorescence [1]: 0.427 ± 0.0081 | sfGFP reporter fluorescence ([2]; ligand: 1 µM Pb): 0.961 ± 0.14 | sfGFP reporter fluorescence ([2]; ligand: 30 µM Zn): 1.77 ± 0.27

N83S R111D
sfGFP reporter fluorescence [1]: 0.0636 ± 0.0039 | sfGFP reporter fluorescence ([2]; ligand: 1 µM Pb): 0.0665 ± 0.0026 | sfGFP reporter fluorescence ([2]; ligand: 30 µM Zn): 0.0759 ± 0.00097

V16T K104V
sfGFP reporter fluorescence [1]: 0.0693 ± 0.0019 | sfGFP reporter fluorescence ([2]; ligand: 1 µM Pb): 0.105 ± 0.0073 | sfGFP reporter fluorescence ([2]; ligand: 30 µM Zn): 0.497 ± 0.034

E109A D131C
sfGFP reporter fluorescence [1]: 0.0641 ± 0.0019 | sfGFP reporter fluorescence ([2]; ligand: 1 µM Pb): 0.0804 ± 0.0035 | sfGFP reporter fluorescence ([2]; ligand: 30 µM Zn): 0.462 ± 0.0051

P61N P143L
sfGFP reporter fluorescence [1]: 0.0754 ± 0.0012 | sfGFP reporter fluorescence ([2]; ligand: 1 µM Pb): 0.151 ± 0.0086 | sfGFP reporter fluorescence ([2]; ligand: 30 µM Zn): 0.804 ± 0.13

P15A P61N
sfGFP reporter fluorescence [1]: 0.0831 ± 0.0029 | sfGFP reporter fluorescence ([2]; ligand: 1 µM Pb): 0.12 ± 0.017 | sfGFP reporter fluorescence ([2]; ligand: 30 µM Zn): 0.573 ± 0.031

E94Y P143C
sfGFP reporter fluorescence [1]: 0.0629 ± 0.0031 | sfGFP reporter fluorescence ([2]; ligand: 1 µM Pb): 0.0621 ± 0.0044 | sfGFP reporter fluorescence ([2]; ligand: 30 µM Zn): 0.0906 ± 0.0035

P61N K104V L107E
sfGFP reporter fluorescence [1]: 0.0663 ± 0.0026 | sfGFP reporter fluorescence ([2]; ligand: 1 µM Pb): 0.0646 ± 0.0037 | sfGFP reporter fluorescence ([2]; ligand: 30 µM Zn): 0.06805 ± 0.00056

I3G K104V
sfGFP reporter fluorescence [1]: 0.0618 ± 0.0017 | sfGFP reporter fluorescence ([2]; ligand: 1 µM Pb): 0.06841 ± 0.00056 | sfGFP reporter fluorescence ([2]; ligand: 30 µM Zn): 0.0899 ± 0.0043

D131A P143L
sfGFP reporter fluorescence [1]: 0.07208 ± 0.00056 | sfGFP reporter fluorescence ([2]; ligand: 1 µM Pb): 0.0969 ± 0.0024 | sfGFP reporter fluorescence ([2]; ligand: 30 µM Zn): 0.559 ± 0.0079

P30A K104V
sfGFP reporter fluorescence [1]: 0.0666 ± 0.0032 | sfGFP reporter fluorescence ([2]; ligand: 1 µM Pb): 0.115 ± 0.011 | sfGFP reporter fluorescence ([2]; ligand: 30 µM Zn): 0.583 ± 0.05
